The results in this text go back to publication doi:10.1101/2024.07.31.606000.

For this assay, the target named is recombinant full-length thrombospondin-1 (human) (UniProt P07996). As to the kind of experiment: SPR.
Chain of recombinant full-length thrombospondin-1 (human) (P07996 19-1170): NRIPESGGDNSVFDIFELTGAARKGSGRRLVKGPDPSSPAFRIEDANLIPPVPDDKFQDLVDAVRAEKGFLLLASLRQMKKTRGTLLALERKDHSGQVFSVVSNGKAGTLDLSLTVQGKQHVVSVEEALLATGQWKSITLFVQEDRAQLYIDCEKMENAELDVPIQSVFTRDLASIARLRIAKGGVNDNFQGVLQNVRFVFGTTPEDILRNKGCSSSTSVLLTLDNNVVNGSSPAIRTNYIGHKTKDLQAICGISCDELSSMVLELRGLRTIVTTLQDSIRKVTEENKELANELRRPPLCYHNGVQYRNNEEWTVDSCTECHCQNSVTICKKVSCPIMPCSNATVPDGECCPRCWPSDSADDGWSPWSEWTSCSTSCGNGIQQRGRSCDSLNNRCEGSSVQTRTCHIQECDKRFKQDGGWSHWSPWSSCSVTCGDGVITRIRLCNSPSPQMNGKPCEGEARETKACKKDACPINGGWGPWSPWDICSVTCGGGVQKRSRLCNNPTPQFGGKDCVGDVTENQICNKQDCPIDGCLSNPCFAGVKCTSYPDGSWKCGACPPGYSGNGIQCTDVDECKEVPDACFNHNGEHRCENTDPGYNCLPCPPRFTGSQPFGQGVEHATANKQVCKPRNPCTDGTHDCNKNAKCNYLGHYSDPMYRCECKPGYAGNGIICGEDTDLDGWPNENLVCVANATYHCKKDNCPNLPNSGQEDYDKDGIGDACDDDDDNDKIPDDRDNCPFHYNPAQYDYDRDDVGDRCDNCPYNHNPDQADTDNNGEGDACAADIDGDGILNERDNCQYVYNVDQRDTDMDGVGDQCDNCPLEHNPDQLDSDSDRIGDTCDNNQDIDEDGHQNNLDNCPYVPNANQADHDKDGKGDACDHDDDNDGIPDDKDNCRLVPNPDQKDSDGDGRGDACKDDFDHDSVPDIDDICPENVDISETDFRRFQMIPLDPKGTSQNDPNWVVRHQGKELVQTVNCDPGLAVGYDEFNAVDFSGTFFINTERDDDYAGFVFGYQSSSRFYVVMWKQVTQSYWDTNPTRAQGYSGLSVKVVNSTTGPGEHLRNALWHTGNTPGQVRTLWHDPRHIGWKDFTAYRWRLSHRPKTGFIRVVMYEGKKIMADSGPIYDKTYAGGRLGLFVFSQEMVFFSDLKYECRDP

Regarding complement C3 (natural protein), the Kd (as a rule, a measure of binding affinity in units of concentration) is 127 nM. For complement C5 (natural protein), the Kd was 47 nM.
